Test results: patent US20250320312A1 (OXITOPE PHARMA B V, published 2025)

T1: Peptide 4: Biotin-AGGGGSGGGGSGGGGSAAA-Tyr-acid (N-terminal biotin; C-terminal acid)
T1 construct: control peptide without PC
T1 peptide: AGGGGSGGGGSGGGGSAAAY

T2: Peptide 8: Biotin-AEAAAKEAAAKEAAAKEAAAKAAA-Tyr-acid (N-terminal biotin; C-terminal acid)
T2 construct: control peptide without PC
T2 peptide: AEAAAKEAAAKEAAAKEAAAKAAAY


Key:
Assay in all cases: scFv ELISA
[1] = target: BSA (UniProt P02769)
[2] = target: Peptide 1: Biotin-…-[Tyr(PC)]-acid
[3] = target: Peptide 5: Biotin-…-[Tyr(PC)]-acid
[4] = target: T1, Peptide 4: …
Experimental: (§1) For ELISA analysis of scFv binding, 96-well polystyrene plates were coated with Peptide 1, 4, 5, 8 or 100 μL BSA (10 μg/mL) in PBS at 4° C. overnight. Plates were washed three times with PBS-Tween and blocked with 100 μL 1% BSA-TBS for 1 hour at room temperature. 96-well streptavidin coated plates were coated with 100 μL biotinylated PC-peptides (1 μg/mL) in PBS for 1 hour at room temperature.
(§2) All plates were washed three times with PBS-Tween before 40 μL aliquots of PPE were added to assay plates along with 50 μL 10% BSA, and plates were incubated for 1 hour at room temperature. After washing, […] HRP conjugated anti-V5 in 5% BSA was added, and plates were incubated at room temperature for 30 mins. Plates were washed and 100 μL TMB substrate was added. Color was left to develop at room temperature before the reaction was stopped with 100 μL 1N HCl. The amount of scFv bound to each well was quantitated from absorbance measurement at 450 nm (OD450).

[5] = target: T2, Peptide 8: …
Experimental: as §1, §2

BSA, sequence (P02769 25-607 limits assumed): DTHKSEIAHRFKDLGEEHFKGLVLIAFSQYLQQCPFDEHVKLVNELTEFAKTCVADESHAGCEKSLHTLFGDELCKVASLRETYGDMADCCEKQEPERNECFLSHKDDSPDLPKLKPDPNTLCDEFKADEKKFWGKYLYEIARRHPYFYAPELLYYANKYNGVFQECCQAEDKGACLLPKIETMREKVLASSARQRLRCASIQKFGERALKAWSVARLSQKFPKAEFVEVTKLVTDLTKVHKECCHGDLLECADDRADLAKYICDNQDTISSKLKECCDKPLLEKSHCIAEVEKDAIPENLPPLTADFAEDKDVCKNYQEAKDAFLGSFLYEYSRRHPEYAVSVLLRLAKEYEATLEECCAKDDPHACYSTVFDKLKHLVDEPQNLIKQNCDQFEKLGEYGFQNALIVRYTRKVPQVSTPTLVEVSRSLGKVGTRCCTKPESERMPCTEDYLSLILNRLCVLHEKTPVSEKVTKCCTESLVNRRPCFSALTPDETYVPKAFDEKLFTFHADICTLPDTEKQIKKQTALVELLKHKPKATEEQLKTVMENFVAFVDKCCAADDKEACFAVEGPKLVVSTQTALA

OD450 [1] | OD450 [2] | OD450 [3] | OD450 [4] | OD450 [5] | Binder
0.09 OD450 | 0.75 OD450 | 1.33 OD450 | 0.07 OD450 | 0.06 OD450 | PcOxP_DB01_G12 (scFv, V domains shown, scFv in periplasmic extract) VH: EVQLLESGGGLVQPGGSLRLSCAASGFTFSDGYMEWVRQAPGKGLEWVAASRNKANDYTTEYADSVKGRFTISRDNSKNTLYLQMNSLRAEDTAVYYCARDYYGSSYWYFDVWGQGTLVTVSS VL: DIQMTQSPSSLSASVGDRVTITCTASESLYSSKHKVHYLAWYQQKPGKAPKLLIYGASNRYFGVPSRFSGSGSGTDFTLTISSLQPEDFATYYCAQFYSYPLTFGGGTKVEIK
0.08 OD450 | 0.6 OD450 | 1.39 OD450 | 0.06 OD450 | 0.06 OD450 | PcOxP_DB01_H10 (scFv, V domains shown, scFv in periplasmic extract) VH: EVQLLESGGGLVQPGGSLRLSCAASGFTFSDGYMEWVRQAPGKGLEWVAASRNKNNDYTTEYADSVKGRFTISRDNSKNTLYLQMNSLRAEDTAVYYCARDYYGSSYWYFDVWGQGTLVTVSS VL: DIQMTQSPSSLSASVGDRVTITCTASESLYSSKHKVHYLAWYQQKPGKAPKLLIYGASNRYFGVPSRFSGSGSGTDFTLTISSLQPEDFATYYCAQFYQYPLTFGGGTKVEIK
0.11 OD450 | 2.01 OD450 | 1.92 OD450 | 0.07 OD450 | 0.07 OD450 | PcOxP_DB01_H04 (scFv, V domains shown, scFv in periplasmic extract) VH: EVQLLESGGGLVQPGGSLRLSCAASGFAFSDFYMEWVRQAPGKGLEWVAASRNKANDYTTEYADSVKGRFTISRDNSKNTLYLQMNSLRAEDTAVYYCARDYYGSHYWYFDVWGQGTLVTVSS VL: DIQMTQSPSSLSASVGDRVTITCTASESLYSSKHKVHYLAWYQQKPGKAPKLLIYGASNLQSGVPSRFSGSGSGTDFTLTISSLQPEDFATYYCAQFYYYPLTFGGGTKVEIK
0.11 OD450 | 0.42 OD450 | 0.9 OD450 | 0.05 OD450 | 0.04 OD450 | PcOxP_DB02_A10 (scFv, V domains shown, scFv in periplasmic extract) VH: EVQLLESGGGLVQPGGSLRLSCAASGFAFSDFYMEWVRQAPGKGLEWVAASRNKANDYTTEYADSVKGRFTISRDNSKNTLYLQMNSLRAEDTAVYYCARDYYGSSYWYFDVWGQGTLVTVSS VL: DIQMTQSPSSLSASVGDRVTITCTASESLYSSKHKVHYLAWYQQKPGKAPKLLIYGASNRQSGVPSRFSGSGSGTDFTLTISSLQPEDFATYYCAQFYAYPLTFGGGTKVEIK
0.11 OD450 | 0.98 OD450 | 1.3 OD450 | 0.05 OD450 | 0.04 OD450 | PcOxP_DB02_A09 (scFv, V domains shown, scFv in periplasmic extract) VH: EVQLLESGGGLVQPGGSLRLSCAASGFTFSDTYMEWVRQAPGKGLEWVAASRNKANDYTTEYADSVKGRFTISRDNSKNTLYLQMNSLRAEDTAVYYCARDYYGSSYWYFDVWGQGTLVTVSS VL: DIQMTQSPSSLSASVGDRVTITCTASESLYSSKHKVHYLAWYQQKPGKAPKLLIYGASNRQSGVPSRFSGSGSGTDFTLTISSLQPEDFATYYCAQFYWYPLTFGGGTKVEIK
0.1 OD450 | 1.12 OD450 | 1.07 OD450 | 0.05 OD450 | 0.05 OD450 | PcOxP_DB02_A06 (scFv, V domains shown, scFv in periplasmic extract) VH: EVQLLESGGGLVQPGGSLRLSCAASGFTFSDQYMEWVRQAPGKGLEWVAASRNKANDYTTEYADSVKGRFTISRDNSKNTLYLQMNSLRAEDTAVYYCARDYYGSSYWYFDVWGQGTLVTVSS VL: DIQMTQSPSSLSASVGDRVTITCTASESLYSSKHKVHYLAWYQQKPGKAPKLLIYGLSNRYIGVPSRFSGSGSGTDFTLTISSLQPEDFATYYCAQFYSYPLTFGGGTKVEIK
0.09 OD450 | 0.64 OD450 | 0.89 OD450 | 0.04 OD450 | 0.04 OD450 | PcOxP_DB02_A11 (scFv, V domains shown, scFv in periplasmic extract) VH: EVQLLESGGGLVQPGGSLRLSCAASGFTFSDGYMEWVRQAPGKGLEWVAASRNIANDYTTEYADSVKGRFTISRDNSKNTLYLQMNSLRAEDTAVYYCARDYYGSSYWYFDVWGQGTLVTVSS VL: DIQMTQSPSSLSASVGDRVTITCTASESLYSSKHKVHYLAWYQQKPGKAPKLLIYGASNRYHGVPSRFSGSGSGTDFTLTISSLQPEDFATYYCAQFYYYPLTFGGGTKVEIK
